This note sets out measurements from the Immune Epitope Database (IEDB).

The target in one assay is HLA-A*02:16. Briefly: IEDB peptide-MHC binding, purified MHC/competitive/fluorescence; filed as Kd, often an IC50 or EC50 that approximates it; ≥ and ≤ were set here for values at or beyond the usual limits of such assays. To be noted: source organism: Entamoeba histolytica HM-1:IMSS.
Assay [1] has as its target HLA-A*02:01. Described as above. To be noted: source organism: Entamoeba histolytica HM-1:IMSS.
In the next assay the target is HLA-B*18:01. Briefly: IEDB peptide-MHC binding, purified MHC/direct/fluorescence; filed as Kd, often an IC50 or EC50 that approximates it; ≥ and ≤ were set here for values at or beyond the usual limits of such assays. To be noted: source organism: Orthohantavirus andesense.
The target in a further assay is HLA-A*68:02. Described as above. Conditions: source organism: Orthohantavirus andesense.
The target in another assay is HLA-A*11:01. The description is as above.
Another assay concerns the target HLA-B*40:01. The assay is described as above.
Another assay has as its target HLA-A*02:12. Described as above. Conditions: source organism: Orthohantavirus andesense.
Another assay addresses HLA-A*31:01. Described as above.
The next assay concerns the target HLA-B*15:01. Described as above.
Another assay has as its target HLA-A*03:01. The description is as above.
The target of a further assay is HLA-A*29:02. Described as above. Conditions: source organism: Orthohantavirus andesense.
The target in another assay is HLA-B*44:02. The assay is described as above.
For another assay, the target named is HLA-A*01:01. The assay is described as above.
Another assay has as its target HLA-B*46:01. Described as above.
The target in the next assay is HLA-A*69:01. The description is as above.
The target of a further assay is HLA-B*48:01. The assay is described as above.
The next assay has as its target HLA-B*07:02. The assay is described as above.
The target of another assay is HLA-B*27:05. The assay is described as above.
The next assay has as its target HLA-B*39:01. The description is as above.
Assay [2] has as its target HLA-A*02:01. Described as above.
The target in another assay is HLA-B*58:01. Described as above.
For a further assay, the target named is HLA-B*57:01. The description is as above.
In a further assay the target is HLA-B*27:03. In words: IEDB peptide-MHC binding, purified MHC/competitive/fluorescence; filed as Kd, often an IC50 or EC50 that approximates it; ≥ and ≤ were set here for values at or beyond the usual limits of such assays. Conditions: source organism: Orthohantavirus andesense.
For the next assay, the target named is HLA-B*51:01. The description is as above. Conditions: source organism: Orthohantavirus andesense.
The target in assay [3] is HLA-A*26:01. Described as above. Conditions: source organism: Orthohantavirus andesense.
The next assay concerns the target HLA-B*15:17. The assay is described as above. To be noted: source organism: Orthohantavirus andesense.
For a further assay, the target named is HLA-B*08:01. Briefly: IEDB peptide-MHC binding, purified MHC/direct/fluorescence; filed as Kd, often an IC50 or EC50 that approximates it; ≥ and ≤ were set here for values at or beyond the usual limits of such assays. To be noted: source organism: Brucella melitensis.
Assay [4] has as its target HLA-A*26:01. The assay is described as above. Conditions: source organism: Brucella abortus.
[5] abbreviates: source organism: Orthohantavirus andesense.
Setting [6] is: source organism: Mammarenavirus machupoense.
The mark [7] stands for this setting: source organism: Brucella abortus.
Where [8] appears, read: source organism: Brucella melitensis.

In the case of SLKERIDML, the results for the Kd with HLA-A*02:16 and with HLA-A*02:01 [1] were 0.0028 µM and 0.0013 µM, respectively.

On to AYDHGNVIL, for which the Kd in the assay with HLA-B*18:01, with HLA-A*68:02, in the assay with HLA-A*11:01 (setting [5]), in the assay with HLA-B*40:01 (setting [5]), with HLA-A*02:12 and in the assay with HLA-A*31:01 (setting [5]) was at least 20 µM each time. Also, the Kd with HLA-B*15:01 (setting [5]), in the assay with HLA-A*03:01 (setting [5]), in the assay with HLA-A*29:02, with HLA-B*44:02 (setting [5]), in the assay with HLA-A*01:01 (setting [5]) and with HLA-B*46:01 (setting [5]) was at least 20 µM throughout. Moreover, the Kd with HLA-A*69:01 (setting [5]) was at least 20 µM; with HLA-B*48:01 (setting [5]), at least 20 µM; with HLA-B*07:02 (setting [5]), at least 20 µM; with HLA-B*27:05 (setting [5]) it was at least 20 µM; in the assay with HLA-B*39:01 (setting [5]), 0.0657 µM; in the assay with HLA-A*02:01 [2] (setting [5]) it was at least 20 µM. For the same sequence, the dissociation constant Kd with HLA-B*58:01 (setting [5]), with HLA-B*57:01 (setting [5]), with HLA-B*27:03, with HLA-B*51:01, with HLA-A*26:01 [3] and in the assay with HLA-B*15:17 was at least 20 µM throughout.

Regarding FHEFLSSKL, the Kd with HLA-A*11:01 (setting [6]), with HLA-A*31:01 (setting [6]), with HLA-B*15:01 (setting [6]), with HLA-A*03:01 (setting [6]), in the assay with HLA-B*44:02 (setting [6]) and with HLA-A*01:01 (setting [6]) was at least 20 µM each time. Besides, the Kd with HLA-B*46:01 (setting [6]) is at least 20 µM; in the assay with HLA-B*48:01 (setting [6]), at least 20 µM; with HLA-B*07:02 (setting [6]) it was at least 20 µM; with HLA-B*27:05 (setting [6]), at least 20 µM; in the assay with HLA-B*39:01 (setting [6]), 0.0731 µM; in the assay with HLA-A*02:01 [2] (setting [6]), at least 20 µM. Also, the Kd in the assay with HLA-B*58:01 (setting [6]) and with HLA-B*57:01 (setting [6]) was at least 20 µM throughout.

For GRDHVRVTL, the Kd was at least 20 µM in the assay with HLA-A*11:01 (setting [7]); at least 5 µM with HLA-B*40:01 (setting [8]); at least 20 µM in the assay with HLA-A*31:01 (setting [7]); at least 20 µM with HLA-B*15:01 (setting [7]); at least 20 µM in the assay with HLA-A*03:01 (setting [7]); at least 20 µM with HLA-B*44:02 (setting [7]). The Kd is at least 20 µM in the assay with HLA-A*01:01 (setting [7]); at least 20 µM with HLA-A*69:01 (setting [7]); at least 20 µM with HLA-B*07:02 (setting [7]); 0.315 µM with HLA-B*27:05 (setting [8]); 2.56 µM in the assay with HLA-B*08:01; at least 20 µM with HLA-A*26:01 [4]. Also, the Kd was 0.053 µM with HLA-B*39:01 (source organism: Brucella suis 1330), at least 20 µM in the assay with HLA-A*02:01 [2] (setting [7]) and at least 20 µM in the assay with HLA-B*58:01 (setting [7]).

One may read the Kd as a measure of binding affinity in units of concentration. Read a high Kd as lower affinity.
